According to patent US7291458B2, “Leptin-mediated gene-induction” (Vlaams Interuniversitair Instituut Voor Biotechnologie VZW, priority 1998, dated 2007):

What was measured:
[1] = system: ob/ob mice; experiment: Gene expression in leptin treated ob/ob mice (Northern blot); type: in vivo; details: 100 μg/mouse intraperitoneally, 5 hours after treatment
Description: Leptin deficient ob/ob mice were left untreated (−) or were treated with leptin (100 μg; +) intraperitoneally. Mice were killed five hours after treatment. Northern blot analysis of MT-II and Fnk in liver and PAP I expression in jejunum is shown. Hybridization with the mouse b-actin probe was used as a control and is shown below. Exposure times to BioMax MS films were 4 hours, 3 days, 4 hours and 8 hours for MT-II, Fnk, PAP I and b-actin respectively.
In order to assess the value of our in vitro model system for obesity, we investigated the regulation by leptin of a subset of the identified genes in vivo. Recombinant human leptin (R&D Systems) was administered intraperitoneally to leptin deficient ob/ob mice in a single dose of 100 μg leptin /mouse. Mice were killed by cervical dislocation 5 hours after treatment and total RNA was isolated from liver and jejunum. Northern blot analysis was performed using respectively MT-II, Fnk and PAP I as probe (FIG. 9).
Specific pathogen-free female C57BL/6J-Lep^ob mice, 9 weeks old at the beginning of the experiment further referred to as ob/ob were obtained from The Jackson Laboratory (Maine, USA). […] The endotoxin content of the antibody was 0.07 ng/mg protein, as assessed by a chromogenic Limulus amebocyte lysate assay (Coatest, Chromogenix, Stockholm, Sweden). […]

[2] = system: PC12-LR8 cells; experiment: Northern blot analysis of gene induction in non-differentiated PC12-LR8 cells; type: cell-based, rat; details: cycloheximide from 30 minutes before induction for 8.5 hours; 24 hours post induction
Description: PC12-LR8 cells were treated with leptin (L), forskolin (F), or a combination of both (F/L) for the indicated length of time. Hybridization with the mouse b-actin probe was used as a control. NI stands for non-induced control cells. Sizes of transcripts are shown on the right. Exposure times to Biomax MS films were 5.5 days for LIP-I and LIP-II, and 1 day for the corresponding b-actin blot, all at −80° C.
FIG. 6A. Induction patterns of Reg I, HIP-I and peripherin after a 12 hours stimulation with forskolin (F), leptin (L), forskolin plus leptin (F/L), hyper-IL-6 (H) or forskolin plus hyper-IL-6 (F/H). Untreated cells were analyzed as a control (NI). Exposure times to BioMax MS films for Reg I, HIP-I and b-actin were 4 days, 5 days and 3 hours, respectively; and in a separate experiment for peripherin and b-actin, 16 hours and 2 days.
FIG. 6B Induction patterns of PAP I, PAP III, MT-II, Fnk, MRF-1, SOCS-3 and STAT-3 after stimulation with leptin (L) or hyper-IL-6 (H), compared to non-treated control cells (NI). In all cases stimulation was for 12 hours, with the exception of PAP III where stimulation was for 24 hours. b-actin hybridization patterns are shown as control. Exposure times to BioMax MS films at −80° C. were 16 hours for PAP I and 1 hour for b-actin; 4 days for PAP III and 1 hour for b-actin; 3 days for MT-II and Fnk, and2 days for b-actin; 3 days for MRF-1, 2.5 days for SOCS-3 and2 days for b-actin; and 16 hours for STAT-3 and 3 hours for b-actin.
FIG. 8A. Northern blot analysis of the immediate early response genes. PC12-LR8 cells were left untreated (NI: non induced), or were treated with forskolin (F), leptin (L) or a combination of both (F/L) for the indicated time points. Exposure times to BioMax MS films for the different transcripts were Fnk: 6 days, MT-II: 5 days, MRF-1: 6 days, SOCS-3: 14 hours, STAT-3: 14 hours, b-actin: 5 hours.
FIG. 8B. Immediate early response gene-set: early kinetics. PC12-LR8 cells were treated with leptin alone (L) or with a combination of leptin and forskolin (F/L) for the indicated length of time. Exposure time to BioMax MS films were: Fnk: 3 days, MT-II: 3 days, MRF-1: 3 days, SOCS-3: 2.5 days, STAT-3: 2.5 days, b-actin: 1 hour.
FIG. 8C. Northern blot analysis of the late target genes. PC12-LR8 cells were left untreated (NI), or were treated with forskolin (F), leptin (L) or a combination of both (F/L) for the indicated length of time. Exposure times to BioMax MS films were: Ann VIII: 6 days, PAP I: 14 hours, Squalene Epoxidase: 5 days, UGT: 5 days, b-actin: 14 hours.
PC12 cells were cultured in RPMI 1640 medium with glutamax-I (GibcoBRL) containing 10% heat-inactivated foetal calf serum (iFCS) and gentamycin (50 μg/ml). The cells were treated with medium alone or supplemented with 100 ng/ml of mouse leptin (R&D Systems), with forskolin (Sigma) at a concentration of 10 μM or with a combination both, unless otherwise indicated.
Total RNA was prepared from PC12 cells using RNeasy™ method (Qiagen). RNA (10 μg) was separated on a 1.5% agarose,6% formaldehyde gel, transferred to a nylon membrane (Zeta-Probe GT Genomic, Bio-Rad), and cross-linked using UV radiation. The filters were hybridized for one hour at 68° C. in ExpressHyb™ solution (Clontech) with [^32P]dCTP-labeled DNA-probes and washed 3 times with 2×SSC, 0.05% SDS at room temperature and twice in 0.1×SSC, 0.1% SDS at 50° C. Autoradiographs were obtained by exposing the blots to BioMax MS film (Kodak) with intensifying screens at −70° C. All Northern blots were normalized by hybridization using a b-actin probe.

[3] = system: human POMC (proopiomelanocortin) promoter; experiment: pGL3-POMCluc reporter in PC12-LR8 cells; type: cell-based, rat
Description: (§1) FIGS. 1C and 1D. Analysis of b-NGF and forskolin co-stimulation on leptin-induced POMC luciferase (C) or rPAP luciferase activity (D). PC12-LR8 cells were transiently transfected with pGL3-hPOMCluc or pGL3-rPAPluc reporter and treated after two days with forskolin (F: 10 μM), leptin (L: 100 ng/ml), and rat b-NGF (N: 1 ng/ml) as indicated or were left untreated (NI). 24 hours after treatment, cells were lysed and assayed for luciferase activity.
(§2) Leptin responsiveness in PC12 cells was further investigated using a clone stably expressing the long isoform of the mouse leptin receptor (PC12-LR8, see below). After transfection of PC12-LR8 with a reporter construct based on the human POMC (proopiomelanocortin) promoter (pGL3-POMCluc) (FIG. 1 portion C), or a reporter construct based on the rat Pancreatitis Associated Protein I promoter (See below) (FIG. 1 portion D), leptin induced luciferase activity was measured. […]
(§3) Luciferase activity was measured in transfected cells by chemiluminescence. […] 70 μl of luciferase substrate buffer (20 mM Tricine; 1.07 mM (MgCO3)4Mg(OH)25H2O; 2.67 mM MgSO4; 0.1 mM EDTA; 33.3 mM DTT; 270 μM Coenzyme A (lithium salt); 470 μM Luciferin (Duchefa); 530 μM ATP, final pH 7.8) was added to 100 μl of cell lysate and measured for 5 seconds by TopCount.NXT Chemiluminescence Counter (Packard).

[4] = system: rat Pancreatitis Associated Protein I promoter; experiment: pGL3-rPAPluc reporter in PC12-LR8 cells; type: cell-based; details: rPAP I reporter
Description: as §1, §2, §3

Q: “Recombinant human leptin: Recombinant human leptin (R&D Systems) administered intraperitoneally to mice” was tested. Which “MT-II and Fnk mRNA expression in liver” value [1] did it give?
A: clear induction

Q: And the “expression of PAP I in jejunum” value [1]?
A: downregulated

Q: How did the “rPAP I and Annexin VIII mRNA expression” value [2] turn out when `C[C@@H]1C[C@@H]([C@H](O)CC2CC(=O)NC(=O)C2)C(=O)[C@@H](C)C1` [cycloheximide, reference compound] was run?
A: strongly reduced expression

B1: b-NGF: recombinant rat b-nerve growth factor (protein, UniProt P25427 122-241, looked up)
Beta-nerve growth factor: SSTHPVFHMGEFSVCDSVSVWVGDKTTATDIKGKEVTVLGEVNINNSVFKQYFFETKCRAPNPVESGCRGIDSKHWNSYCTTTHTFVKALTTDDKQAAWRFIRIDTACVCVLSRKAARRG
Q: Which “combined b-NGF and forskolin effects on leptin induced luciferase activity” value [3] does the source give for B1 here?
A: additive

Q: And the “co-stimulation of leptin induced luciferase activity” value ([3]; b-NGF 1 ng/ml)?
A: mimicked

Q: What about the “co-stimulation of leptin induced luciferase activity” value ([4]; b-NGF 1 ng/ml) of the same molecule?
A: mimicked

Q: And the “combined b-NGF and forskolin effects on leptin induced luciferase activity” value [4]?
A: additive
